# Test results: patent publication US20040180443, “Methods for transfer of DNA segments” (Stratagene, published 2004)
# Target: Cre recombinase (Bacteriophage P1?, UniProt P06956 P06956:1-343)
# Experiment: in vitro loxP x loxP plasmid co-integration, 50 mM Tris pH 7.5, 10 mM MgCl2, 30 mM NaCl, 37 C 45 min; read out by product vector rescue in E. coli (1.2x10^4 and 8.2x10^5 colonies per ug second vector)
# Conditions: tags: Stratagene; chain copies: 4
# Experimental: To rescue the product vector from the co-integrate vector, chemically competent XL1-blue or XL10 gold (kanR) (both strains from Stratagene, LaJolla, Calif.) were transformed with the above recombination reaction. Either strain has high transformation efficiencies and carries the F′ plasmid required to render the host infectable by filamentous phages such as f1. Transformation was performed by mixing 2.5 μl of the recombination reaction with 100 μl of competent cells, incubation on ice for 20 minutes and subsequent hear shock at 42° C. for 45 seconds. After the heat shock, 1 ml of 1×NZY, 10 μl of Exassist helper phage (10⁸ pfu; Stratagene, LaJolla, Calif.) and 100 μl of a fresh stationary culture of XLOLR-S^R were added and incubated for 2 hours at 37° C. while shaking. The XLOLR-S^R strain serves as the secondary host. The secondary host can be selected for with Streptomycin. Exassist is used as a helper phage allowing packaging of the rescued single-stranded product vector. […]
# Plasmid DNA of 18 blue colonies were analyzed by restriction digestion. […] All white colonies analyzed by restriction digestion were indistinguishable from the second vector and presumably resulted form mutations in the rpsL insert serving as the negative selectable marker. […]
# Sequence of Cre recombinase (P06956 whole entry, one chain of several): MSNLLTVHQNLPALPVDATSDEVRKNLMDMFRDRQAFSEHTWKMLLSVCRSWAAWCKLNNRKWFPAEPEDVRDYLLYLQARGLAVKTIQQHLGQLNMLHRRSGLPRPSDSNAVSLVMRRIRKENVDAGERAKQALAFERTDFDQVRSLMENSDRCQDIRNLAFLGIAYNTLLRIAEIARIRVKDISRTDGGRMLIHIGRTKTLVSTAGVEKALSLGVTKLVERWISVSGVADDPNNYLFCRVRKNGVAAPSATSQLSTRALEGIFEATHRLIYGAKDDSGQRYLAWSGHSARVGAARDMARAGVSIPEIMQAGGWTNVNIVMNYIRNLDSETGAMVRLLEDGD
binder,measurement,value
loxP site (wild type) in first and second vectors (dsDNA) DNA 1: CGAATTGGAGCTATAACTTCGTATAATGTATGCTATACGAAGTTATCATATGGCGGTGGCGGCCGCTCTAGAAC DNA 2: GTTCTAGAGCGGCCGCCACCGCCATATGATAACTTCGTATAGCATACATTATACGAAGTTATAGCTCCAATTCG,binding result,binds
